# Test: soluble on expression in E. coli; label from the status in PepcDB or PDB records
row,Sequence,soluble on expression in E. coli
1,MGSDKIHHHHHHMQNQPPFIINSTYHREESKDIEFKSIASQHPVKKIVNHAEEYITGFLNALVEGQLYIGIDDAGKILGVKLSRSERDEIQKIIPNKLRNTDPIVSPSLYDIAFYNVLNEEQKDIEDLFVVNISVLGVDESQFYRTSSREYFLYKTTGGSTYLKTGTDCIKLNTTEIAQEIQKRKQKYLKQELDNIDDKLLQNPDNRSLLKEKANIAKLMGDIEKMDESYKRLINLNPNNSRTRVDYASAHKSIGDLEGALDILEDALKVDGDNLSILKTKGEILLGSDSSDKVKEAFQTYETALKLNPEDYTIITQIGIALRKLGKYKESIKVFNLALAKSPHYRAAKYEKRITYHKMFEGGIRI,not soluble
2,MSLNYKNYTVMLVDDEQPILNSLKRLIKRLGCNIITFTSPLDALEALKGTSVQLVISDMRMPEMGGEVFLEQVAKSYPDIERVVISGYADAQATIDAVNRGKISRFLLKPWEDEDVFKVVEKGLQLAFLREENLRLQEETEAKNKQEGHHHHHH,soluble
3,MTKRSDSVAPKERINIKYVPATGDEQAEVELPHKMMVLGDFGLDDSRSLEDRQVMRIDKHTFNNVLNDADVSLAMSVPSALDATPNAELAVNLQFKSIQDFGPDRIARQVPELNKLLQLREALVALKGPLGNVPTFRKQLQQLLNDAHARKQLAQELDLVLEAPKAD,not soluble
4,MPKAVAVLFFLLFTSLSYAESAFDIVQKSDQAMRGKSSYSEATMEIVRPDWTRSMTMKSWTKGTELSLVLVTAPAKDKGSASLKRHREMWNWVPSIERVIKIAPSMLSQSWMGSDFTNDDLINQSSIVVDYQHALLGNDSFEGDKVWVIEATAKPDAPVVWNKVTLWISQSTYLQRKVEFYDEFDERVNVLTTYDVKELGGRKIATRMEMKPVDKPGNKTIFTTHQAQFDFDINDDFFSQQQMKSLRD,not soluble
5,MSLDGTVLLIDYFEYEREKTKIIFDNIGEYDFIEVENLKKFYSIFKDLDSITLIIMDIAFPVEKEGLEVLSAIRNNSRTANTPVIIATKSDNPGYRHAALKFKVSDYILKPYPTKRLENSVRSVLKICQRFRYEFDSAHVISMSIEDYISKEFKVASRAGQSLSVILMAPVGLEKEPSEQSTQISSELQDQIQNLAIEKVKLSLRSTDTAILNANRDILVILPFTNAAGAQKVLQKIQDNVREGLKSLNINYDDYYYAVSVTFPNDGKTFQSLMEKAVKKVEDKIMLEKITSIGVNILDNARNSYKKFNKEGHHHHHH,soluble
6,MAHHHHHHMPSPQSLTGTPRSLQHAPLPAQVVRDALPLRRDVSDLLPVEQLRVLHVLTIAGMPRPHNTHSATISCRLSSPIMSATPNAYWRTCSMRCISVPSLCLEQTLPSSQSTAWMPREAADRSSVCGRSKCAETTATLTPSDISTHSTLPHKRAVPWEREVRRTVLA,not soluble
7,MNEKQKRFADEYIMNGCNGKKAAISAGYSKKTAESLASRLLRNVNVSEYIKERLEQIQEERLMSITEALALSASIARGEPQEAYSKKYDHLNDEVEKEVTYTITPTFEERQRSIDHILKVYGAYIDKKEITQKNIEINIGEYDDESLEHHHHHH,soluble
8,MSLNSAAQAQSSDPVVIGCPAPLTGIVAADGIEFQRGIQMAADEINAVGGILGRPIELVFADTQSKGVDVVIQSAQRLIDRDNASALIAGYNLENGTALHDVAADAGVIAMHANTVAVHDEMVKSDPDRYWGTFQYDPPETLYGGGFLKFLKDIEDNGEFSRPNNKIAIITGPGIYSVNIANAIRDGAGEYGYDVSLFETVAIPVSDWGPTLAKLRADPPAVIVVTHFYPQDQALFMNQFMTDPTNSLVYLQYGASLAAFRDIAGDNSVGVTYATVLGTLQDEMGDAFAKAYKERYGDLSSTASGCQTYSALYAYSIAAALAGGPGAPYDDVQNKAVADRLRSLIFRGPVGTMRFHADTQSAWSYPTETNDPSLGMPHIFSQIFDKAEDGVLIAPAPYKKAGFKMPPWMKGEGHHHHHH,soluble
9,MGSDKIHHHHHHMERLAQPSRFLQRKLFEVNLLKPVTVEKEAPIGEIRRILRDTGSRIVLVVNGEGRLEGVIYRSSVILVTSRKSEAKALDIMEEPAVVLKPSYSLEEAVFSMLKFDEWYAPVVNDANRLVGVLGLETPIRLLLEAGFYRGYTASDAMTRDVEYVLEGDSLTRVWEIMVERRYAGVPVVDQRMVVRGIVTQYDLIRKGYTRLGLESEAPPHRVRVESVMTRSVIYVAESDNLEDVARIMLDRGVGRVPVVKSRDSRVLTGIIDREDLVRLYFKSRGRASL,not soluble
10,MFQIYEIFSSVFNFDPKMPENVGVKEDDDKVFAKEIAQLEEEFEANTLKAESLEKEIAYSKVQIETENVKFAAIEQEKAIEIIKLEKQIKIMEAKLDFMKQDPIEIEEIEKLKHRVEEETQRNTEYAESLKYIKEMIRIKKAEKNEKKQKNAIDN,not soluble
11,GPGSMVKPRSQGPRRPAVKQADNKSVGDRSKTAVTEKMKPSRLVGGTTGAKKERREGKKVSTGKANKVAATSASTVVLKEGGKPSGPSHGTGTNSSRRGKRSPQAQTRRAAARVASRVIESNSRITAATNRMNTAREELALFDQVTQMPAFVADPFTAIDEHLSTAMDFLQPQTPDVGRVKRE,soluble
12,MGSDKIHHHHHHMQSGMYVSLSSQRALDKRLTTIADNMANVNTVGFRGTEVKFDEVVSRTGNDQNAKIAFVSQGNDYLNTQSGEMLQTGGTLDFAVKGDAWFSIDTPAGPALTRDGRFTMTSTGQLVSVRGYSVLDAGGGPIQLDPNGGEPHVGADGTINQNGRQISQIGLFTADISKGYLRTENSGVITTDRPQAVVDDATIGVMQGYVEQSNVNGISQMTQLIQVSRAFESISASMSQTENSMSETIKTLGGSK,not soluble
13,MSLERKRVLVKFSGEALAGENGFGIENSILKFIASEIKELIKNQIEVGIVIGGGNIIRGVSAAKGGLIKRTSGDHMGMLATVINAIAIQEALESSGLEVRVQSAIQMEAFCETYIMRRAQRHLEKGRVVVFAAGTGNPYFTTDTTAILRAVEIDADMVIKATKVNGVYDKDPKQFDDAVFLNTLSYDEAMQDNIKVMDDTAIALAKDNKLPIVVCNMFEEGNLLKIIQGDTSLCSTVKNNEGHHHHHH,soluble
14,MGSDKIHHHHHHMNKTITIDPVTRIEGHARVFIDLDDGGALKAAGLVVNELRGFEKILTGMDADRMPLVTARICGVCPTAHHLAATNALDNAAGVEPPTAAKLLRELMYMGHLIHSHCLSLFVLQGPDLVLGLDADPAIRNVVGVVQAVPDIARKALQCRSIGQKINELVGGRGTHPVTSVAGGIAFVLDADRERQLNAWIQEAHGLVLELAPVVKQLLMKMLDANPAMLEQWVIPAWSVGTVKGDGTIALVNGEIRAIDESGARKAQFPTAGYDTHLSEAAVDFSYMKQVSFVEGETRHDYRVGPLARLNISDRYGTPLADREREEFIRTVGRPCHANALQPWARLIELLYCTERAQEIMASPEIHGETRVPVKFSGGRGVGHVEAPRGTLIHDYEIDENGIVRAANLIVATQQNYALINTMIAQAATSHVINRPDDQALLNAVEFGIRCYDPCLSCATHALGAMPLEIVVNRADRPHLIRRNC,not soluble
15,MSLDTSAPQKYRRILLKVSGEVLMGDTPYGIDTNTVQSVAEDVAEIVKSGVELCLVIGGGNIFRGMAGAAKGMERSSADYMGMLATVMNALAMQDALERIGVETRVQSAIPMATVCEPYIRRRAQRHLEKGRVVIFAAGTGNPFFTTDTAAALRAAEMQCDALFKGTSVDGVYTADPKKDPTAQRYDRLSYMDVLAKDLRVMDASAVALMRDSNIPIVVFSIKGRGNLLTVLRGEGTHTVVAEDEGHHHHHH,soluble
16,MSSAQFDHVTVIKKSNVYFGGLCISHTVQFEDGTKKTLGVILPTEQPLTFETHVPERMEIISGECRVKIADSTESELFRAGQSFYVPGNSLFKIETDEVLDYVCHLEG,soluble
17,MAHHHHHHMLRWTSRYLCASAAAAAGPEVHRDVEEFAVVIVGGGPSGLSAAIRLKQLAGDQRDSFRVGLVEKGSEIGAHTLSGACVEPHGLDELLPGWREQEGSVLSSMTPVTSDAFHVLIGPSRSVKVPWLPSTLHNRGNYITSLGGICKWLGEQAEALGVEIYPGFAAADVVVDEATGAVTGVQLNDRGVDKSGRRTAQYEPGMIFRAKQTIFAEGCRGSCTKQLEKRFGLRTADNPQTFGLGIKEVWEVPKERHHPGTVMHTVGWPTTDKGHDNTYGGAFLYHYGDGLISCGYVVGLDYSNPYCRPYMEMQKWKTHDLIRGQLEGGRPILYGARTLVEGGFSALPKLHFPGGVLAGDCAGFLNLPKIKGTHTAMKSGMLAAEAVYEDAFKGGKEEAASGVECKSYDDCFRSSWLYKELYTVRNVRQSFYKSFKWGMLYTGITSLLLHGREPWTLKHTTPDNLSLKPAKECVEIKYPKPDGTLTFDLLTNHSRSGTAHNADQPCHLRLKDSKVAEEVNLKAYAGPEARFCPAGVYEFVNDKLVINAQNCLHCKACDIKDPTQNINWTVPEGGGGPNYQAQM,not soluble
18,SYMERMDKRALISFWESVEHLKNANKNEIPQLVGEIYQNFFVESKEISVEKSLYKEIQQCLVGNKGIEVFYKIQEDVYETLKDRYYPSFIVSDLYEKLLIKEEEKHASQMISNKDEMGPRDEAGEEAVDDGTNQINEQASFAVNKLRELNEKLEYKRQALNSIQNAPKPDKKIVSKLKDEIILIEKERTDLQLHMARTDWWCENLGMWKASITSGEVTEENGEQLPCYFVMVSLQEVGGVETKNWTVPRRLSEFQNLHRKLSECVPSLKKVQLPSLSKLPFKSIDQKFMEKSKNQLNKFLQEETEEDSDLSDYGDDVDGRKDALAEPCFMLIGEIFELRGMFKWVRRTLIALVQVTFGRTINKQIRDTVSWIFSEQMLVYYINIFRDAFWPNGKLAPPTTIRSKEQSQETKQRAQQKLLENIPDMLQSLVGQQNARHGIIKIFNALQETRANKHLLYALMELLLIELCPELRVHLDQLKAGQV,soluble
19,MGSDKIHHHHHHMIKEIRQRIENFESDYVFTYQDLNLSPERSERVIKILNRLVAEGIIAKISKGRFYKPKKSVFGMLKPKLEEVVKDFLEKDGEVIGYMTGYLAFNRLGLTTQVPNIIQIGTNVRKNKTVRGMFTISFVIQSNPITKENIPLLQLLDAIKFIKEIPDTTTSQSCKCIMTIIQNLNKKDRDELLILAKKYPPMVRALLGAMVENIYGTNKALPLWNTLNPLTLYNVKIDKQVLPEVRKWRIQ,not soluble
20,MGSSHHHHHHGGFSQSCLPNWIMHGKSCYLFSFSGNSWYGSKRHCSQLGAHLLKIDNSKEFEFIESQTSSHRINAFWIGLSRNQSEGPWFWEDGSAFFPNSFQVRNAVPQESLLHNCVWIHGSEVYNQICNTSSYSICEKEL,soluble
21,SLVCKNALQDLSFLEHLLQVKYAPKTWKEQYLGWDLVQSSVSAQQKLRTQENPSTSFCQQVLADFIGGLNDFHAGVTFFAIESAYLPYTVQKSSDGRFYFVDIMTFSSEIRVGDELLEVDGAPVQDVLATLYGSNHKGTAAEESAALRTLFSRMASLGHKVPSGRTTLKIRRPFGTTREVRVKWRYVPEGVGDLATIAPSIRAPQLQKSMRSFFPKKDDAFHRSSSLFYSPMVPHFWAELRNHYATSGLKSGYNIGSTDGFLPVIGPVIWESEGLFRAYISSVTDGDGKSHKVGFLRIPTYSWQDMEDFDPSGPPPWEEFAKIIQVFSSNTEALIIDQTNNPGGSVLYLYALLSMLTDRPLELPKHRMILTQDEVVDALDWLTLLENVDTNVESRLALGDNMEGYTVDLQVAEYLKSFGRQVLNCWSKGDIELSTPIPLFGFEKIHPHPRVQYSKPICVLINEQDFSCADFFPVVLKDNDRALIVGTRTAGAGGFVFNVQFPNRTGIKTCSLTGSLAVREHGAFIENIGVEPHIDLPFTANDIRYKGYSEYLDKVKKLVCQLINNDGTIILAEDGSFHHHHHH,soluble
